Source: patent publication US20250011379A1

Each substance was assayed against soluble human C3b (human) (UniProt P01024) (assay: cell-based or functional assay).
Chain of soluble human C3b (human) (P01024 23-1663 limits assumed): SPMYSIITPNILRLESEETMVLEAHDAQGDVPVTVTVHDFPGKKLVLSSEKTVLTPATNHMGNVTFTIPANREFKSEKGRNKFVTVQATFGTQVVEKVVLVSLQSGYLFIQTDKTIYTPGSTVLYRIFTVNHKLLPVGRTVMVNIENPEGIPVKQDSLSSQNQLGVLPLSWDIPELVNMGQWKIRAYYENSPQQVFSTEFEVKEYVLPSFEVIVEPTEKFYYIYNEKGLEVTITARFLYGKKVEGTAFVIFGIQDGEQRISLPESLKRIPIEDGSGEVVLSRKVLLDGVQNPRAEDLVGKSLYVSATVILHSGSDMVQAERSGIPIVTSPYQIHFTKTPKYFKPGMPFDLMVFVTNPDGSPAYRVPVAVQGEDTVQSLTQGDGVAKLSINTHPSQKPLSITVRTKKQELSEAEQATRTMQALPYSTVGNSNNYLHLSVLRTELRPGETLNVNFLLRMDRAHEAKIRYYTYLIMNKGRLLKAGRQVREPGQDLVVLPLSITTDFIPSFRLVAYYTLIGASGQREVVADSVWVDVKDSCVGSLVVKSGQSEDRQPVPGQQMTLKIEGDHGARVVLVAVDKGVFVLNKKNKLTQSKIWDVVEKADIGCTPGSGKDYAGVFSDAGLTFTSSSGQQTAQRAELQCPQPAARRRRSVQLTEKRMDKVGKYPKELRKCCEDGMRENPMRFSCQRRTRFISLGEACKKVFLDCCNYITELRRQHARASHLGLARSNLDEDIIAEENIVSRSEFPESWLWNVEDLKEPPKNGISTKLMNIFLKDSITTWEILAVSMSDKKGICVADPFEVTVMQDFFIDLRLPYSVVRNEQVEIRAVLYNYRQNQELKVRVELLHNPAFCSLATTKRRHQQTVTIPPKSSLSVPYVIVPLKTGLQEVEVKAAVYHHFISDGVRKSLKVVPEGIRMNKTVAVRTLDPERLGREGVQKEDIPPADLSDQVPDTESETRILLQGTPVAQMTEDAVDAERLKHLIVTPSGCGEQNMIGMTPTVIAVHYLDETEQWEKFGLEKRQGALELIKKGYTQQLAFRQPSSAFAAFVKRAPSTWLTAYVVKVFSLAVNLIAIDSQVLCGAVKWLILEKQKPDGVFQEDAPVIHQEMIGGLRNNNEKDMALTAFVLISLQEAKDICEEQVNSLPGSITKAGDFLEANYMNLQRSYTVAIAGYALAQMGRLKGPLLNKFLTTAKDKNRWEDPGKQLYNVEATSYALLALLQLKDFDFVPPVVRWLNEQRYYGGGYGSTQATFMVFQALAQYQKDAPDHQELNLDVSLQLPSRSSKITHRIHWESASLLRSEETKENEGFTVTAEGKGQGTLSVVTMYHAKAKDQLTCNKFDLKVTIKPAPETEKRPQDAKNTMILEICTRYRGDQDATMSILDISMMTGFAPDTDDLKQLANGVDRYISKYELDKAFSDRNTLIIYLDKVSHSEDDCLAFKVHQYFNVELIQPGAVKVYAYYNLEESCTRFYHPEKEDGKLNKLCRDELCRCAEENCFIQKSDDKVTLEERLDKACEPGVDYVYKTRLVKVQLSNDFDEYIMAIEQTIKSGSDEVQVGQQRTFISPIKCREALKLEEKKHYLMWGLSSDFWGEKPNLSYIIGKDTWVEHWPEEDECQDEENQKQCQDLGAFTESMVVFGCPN

Chain of Const. No. 66: HSA-GGSSGG-hCFI-GGSSGG-hCR1; CCP8; CCP9; CCP10-(SEQ ID NO: 33)-hFH; CCP19; CCP20 (P17927 other isoform, or with tags, fused parts or gaps limits assumed): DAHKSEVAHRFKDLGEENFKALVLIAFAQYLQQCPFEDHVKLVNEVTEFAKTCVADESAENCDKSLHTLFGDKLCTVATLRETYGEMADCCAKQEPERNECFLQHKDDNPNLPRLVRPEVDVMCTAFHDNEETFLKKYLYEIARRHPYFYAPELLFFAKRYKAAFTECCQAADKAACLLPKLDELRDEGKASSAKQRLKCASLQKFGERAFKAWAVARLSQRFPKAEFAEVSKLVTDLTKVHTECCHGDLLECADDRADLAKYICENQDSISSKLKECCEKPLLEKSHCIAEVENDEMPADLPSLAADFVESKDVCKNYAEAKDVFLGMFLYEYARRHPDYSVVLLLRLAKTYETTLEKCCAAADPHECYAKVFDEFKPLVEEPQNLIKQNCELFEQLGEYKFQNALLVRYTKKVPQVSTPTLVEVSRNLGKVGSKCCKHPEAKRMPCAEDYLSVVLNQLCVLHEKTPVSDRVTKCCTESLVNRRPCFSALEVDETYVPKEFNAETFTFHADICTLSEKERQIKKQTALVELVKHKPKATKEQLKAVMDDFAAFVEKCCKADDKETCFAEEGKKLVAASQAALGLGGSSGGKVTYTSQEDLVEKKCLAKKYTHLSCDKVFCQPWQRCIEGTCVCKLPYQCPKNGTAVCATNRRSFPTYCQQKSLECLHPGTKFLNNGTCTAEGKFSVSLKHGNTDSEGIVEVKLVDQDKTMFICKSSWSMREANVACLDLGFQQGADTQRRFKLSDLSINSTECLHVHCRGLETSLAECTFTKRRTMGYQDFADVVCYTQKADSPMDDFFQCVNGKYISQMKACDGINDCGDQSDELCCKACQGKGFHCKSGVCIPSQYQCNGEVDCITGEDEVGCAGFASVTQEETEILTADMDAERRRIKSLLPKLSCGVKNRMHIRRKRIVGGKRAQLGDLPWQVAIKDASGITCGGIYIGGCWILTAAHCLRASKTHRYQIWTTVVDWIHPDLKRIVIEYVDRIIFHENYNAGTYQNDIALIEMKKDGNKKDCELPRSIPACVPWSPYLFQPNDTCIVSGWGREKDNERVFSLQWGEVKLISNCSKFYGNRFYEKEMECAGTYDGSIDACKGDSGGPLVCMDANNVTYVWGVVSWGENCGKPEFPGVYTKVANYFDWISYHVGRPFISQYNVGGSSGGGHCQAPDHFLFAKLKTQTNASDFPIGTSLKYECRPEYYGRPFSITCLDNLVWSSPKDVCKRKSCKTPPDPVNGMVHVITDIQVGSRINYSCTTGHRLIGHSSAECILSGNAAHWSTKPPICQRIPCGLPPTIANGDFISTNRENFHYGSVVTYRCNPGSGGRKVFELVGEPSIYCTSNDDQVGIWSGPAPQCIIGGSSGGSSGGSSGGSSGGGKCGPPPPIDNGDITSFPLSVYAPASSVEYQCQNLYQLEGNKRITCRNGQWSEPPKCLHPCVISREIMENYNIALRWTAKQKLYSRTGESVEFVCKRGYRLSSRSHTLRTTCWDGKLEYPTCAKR

Row | Substance | iC3b EC50 [nM] | iC3b no cofactor EC50 [nM] | iC3b with cofactor EC50 [nM]
1 | Const. No. 4: HSA-GGSSGG-hCFI; L307H (enzyme) | 21.4 |  | 
2 | Const. No. 7: HSA-GGSSGG-hCFI; P433A (enzyme) | 15.8 |  | 
3 | Const. No. 14: HSA-GGSSGG-hCFI; S499A (enzyme) | 40.9 |  | 
4 | Const. No. 16: HSA-GGSSGG-hCFI; S499V (enzyme) | 85.6 |  | 
5 | Const. No. 21: HSA-GGSSGG-hCFI; K423R (enzyme) | 30.5 |  | 
6 | Const. No. 22: HSA-GGSSGG-hCFI; R62A (enzyme) | 102 |  | 
7 | Const. No. 23: HSA-GGSSGG-hCFI; R62E (enzyme) | 156 |  | 
8 | Const. No. 29: HSA-GGSSGG-hCFI; E401F (enzyme) | 10.6 |  | 
9 | Const. No. 33: HSA-GGSSGG-hCFI; H554F (enzyme) | 16.4 |  | 
10 | Const. No. 34: HSA-GGSSGG-hCFI; H554K (enzyme) | 8.7 |  | 
11 | Const. No. 35: HSA-GGSSGG-hCFI; R371E (enzyme) | 347 |  | 
12 | Const. No. 36: HSA-GGSSGG-hCFI; A342R (enzyme) | 13.1 |  | 
13 | Const. No. 37: HSA-GGSSGG-hCFI; K51R; N52A; A55P; T59M; R61G; F64Y (enzyme) | 20.3 |  | 
14 | Const. No. 38: HSA-GGSSGG-hCFI; N52A (enzyme) | 39.8 |  | 
15 | Const. No. 39: HSA-GGSSGG-hCFI; A55P (enzyme) | 31.4 |  | 
16 | Const. No. 40: HSA-GGSSGG-hCFI; T59E (enzyme) | 43.1 |  | 
17 | Const. No. 41: HSA-GGSSGG-hCFI; L73F (enzyme) | 31.4 |  | 

Row | Substance | iC3b EC50 [nM] | iC3b no cofactor EC50 [nM] | iC3b with cofactor EC50 [nM]
18 | Const. No. 45: HSA-GGSSGG-hCFI; R484A (enzyme) | 61.1 |  | 
19 | Const. No. 47: HSA-GGSSGG-hCFI; R484E (enzyme) | 154 |  | 
20 | Const. No. 48: HSA-GGSSGG-hCFI; Δ(V565) > VG (enzyme) | 1000 |  | 
21 | Const. No. 49: HSA-GGSSGG-hCFI; Δ(V565) > VY (enzyme) | 89.2 |  | 
22 | Const. No. 50: HSA-GGSSGG-hCFI; E416K (enzyme) | 12.8 |  | 
23 | Const. No. 51: HSA-GGSSGG-hCFI; E416R (enzyme) | 12.5 |  | 
24 | Const. No. 52: HSA-GGSSGG-hCFI; D395A (enzyme) | 22.5 |  | 
25 | Const. No. 53: HSA-GGSSGG-hCFI; D395G (enzyme) | 20.7 |  | 
26 | Const. No. 54: HSA-GGSSGG-hCFI; D395K (enzyme) | 7.38 |  | 
27 | Const. No. 57: HSA-GGSSGG-hCFI; D395A; E416A (enzyme) | 17.5 |  | 
28 | Const. No. 58: HSA-GGSSGG-hCFI; D395A; E416A; D425A (enzyme) | 8.15 |  | 
29 | Const. No. 59: HSA-GGSSGG-hCFI; N402D (enzyme) | 24.9 |  | 
30 | Const. No. 60: HSA-GGSSGG-hCFI; K368D (enzyme) | 156 |  | 
31 | Const. No. 71: HSA-…-Gorilla CFI (enzyme) | 32.7 |  | 
32 | Const. No. 74: HSA-…-Bovine CFI (enzyme) | 5.79 |  | 
33 | Const. No. 95: HSA linked with CFI (CFI-HSA), wild type (enzyme) | 28.6 |  | 

Other lines, results leading:

Row | iC3b EC50 [nM] | iC3b no cofactor EC50 [nM] | iC3b with cofactor EC50 [nM] | Substance
34 | 28.6 |  |  | Const. No. 2: HSA-GGSSGG-hCFI; F559H (enzyme)
35 | 18.9 |  |  | Const. No. 3: HSA-GGSSGG-hCFI; L307F (enzyme)
36 | 24.8 |  |  | Const. No. 5: HSA-GGSSGG-hCFI; L307W (enzyme)
37 | 34.7 |  |  | Const. No. 6: HSA-GGSSGG-hCFI; L307Y (enzyme)
38 | 35.1 |  |  | Const. No. 15: HSA-GGSSGG-hCFI; S499K (enzyme)
39 | 6.39 |  |  | Const. No. 26: HSA-GGSSGG-hCFI; E401K (enzyme)
40 | 6.26 |  |  | Const. No. 27: HSA-GGSSGG-hCFI; E401R (enzyme)
41 | 11.8 |  |  | Const. No. 28: HSA-GGSSGG-hCFI; E401A (enzyme)
42 | 168 |  |  | Const. No. 42: HSA-GGSSGG-hCFI; L73D (enzyme)
43 | 12.4 |  |  | Const. No. 55: HSA-GGSSGG-hCFI; D395R (enzyme)
44 | 9.67 |  |  | Const. No. 56: HSA-GGSSGG-hCFI; D395A; D425A (enzyme)
45 | 3.17 | 2.92 | 3.2 | Const. No. 66: HSA-GGSSGG-hCFI-GGSSGG-hCR1; CCP8; CCP9; CCP10-(SEQ ID NO: 33)-hFH; CCP19; CCP20 (from UniProt P17927 491-684; P08603 1107-1231) (enzyme)
46 | 17.5 |  |  | Const. No. 70: HSA-…-Rat CFI (from UniProt Q9WUW3 19-604) (enzyme)
47 | 3.12 |  |  | Const. No. 72: HSA-…-Cyno CFI (from UniProt A0A650AXN4 19-583) (enzyme)
48 | 54.6 |  |  | Const. No. 73: HSA-…-Chimp CFI (enzyme)
49 | 6.69 |  |  | Const. No. 91: HSA-GGSSGG-hCFI; T377A; E457G; N531G (enzyme)
50 | 46.3 |  |  | Const. No. 92: HSA-GGSSGG-hCFI; N422A (enzyme)

What follows are substances tested against human C4b (human) (UniProt P0C0L5) (assay: cell-based or functional assay).
Chain of human C4b (human) (P0C0L5 20-1744): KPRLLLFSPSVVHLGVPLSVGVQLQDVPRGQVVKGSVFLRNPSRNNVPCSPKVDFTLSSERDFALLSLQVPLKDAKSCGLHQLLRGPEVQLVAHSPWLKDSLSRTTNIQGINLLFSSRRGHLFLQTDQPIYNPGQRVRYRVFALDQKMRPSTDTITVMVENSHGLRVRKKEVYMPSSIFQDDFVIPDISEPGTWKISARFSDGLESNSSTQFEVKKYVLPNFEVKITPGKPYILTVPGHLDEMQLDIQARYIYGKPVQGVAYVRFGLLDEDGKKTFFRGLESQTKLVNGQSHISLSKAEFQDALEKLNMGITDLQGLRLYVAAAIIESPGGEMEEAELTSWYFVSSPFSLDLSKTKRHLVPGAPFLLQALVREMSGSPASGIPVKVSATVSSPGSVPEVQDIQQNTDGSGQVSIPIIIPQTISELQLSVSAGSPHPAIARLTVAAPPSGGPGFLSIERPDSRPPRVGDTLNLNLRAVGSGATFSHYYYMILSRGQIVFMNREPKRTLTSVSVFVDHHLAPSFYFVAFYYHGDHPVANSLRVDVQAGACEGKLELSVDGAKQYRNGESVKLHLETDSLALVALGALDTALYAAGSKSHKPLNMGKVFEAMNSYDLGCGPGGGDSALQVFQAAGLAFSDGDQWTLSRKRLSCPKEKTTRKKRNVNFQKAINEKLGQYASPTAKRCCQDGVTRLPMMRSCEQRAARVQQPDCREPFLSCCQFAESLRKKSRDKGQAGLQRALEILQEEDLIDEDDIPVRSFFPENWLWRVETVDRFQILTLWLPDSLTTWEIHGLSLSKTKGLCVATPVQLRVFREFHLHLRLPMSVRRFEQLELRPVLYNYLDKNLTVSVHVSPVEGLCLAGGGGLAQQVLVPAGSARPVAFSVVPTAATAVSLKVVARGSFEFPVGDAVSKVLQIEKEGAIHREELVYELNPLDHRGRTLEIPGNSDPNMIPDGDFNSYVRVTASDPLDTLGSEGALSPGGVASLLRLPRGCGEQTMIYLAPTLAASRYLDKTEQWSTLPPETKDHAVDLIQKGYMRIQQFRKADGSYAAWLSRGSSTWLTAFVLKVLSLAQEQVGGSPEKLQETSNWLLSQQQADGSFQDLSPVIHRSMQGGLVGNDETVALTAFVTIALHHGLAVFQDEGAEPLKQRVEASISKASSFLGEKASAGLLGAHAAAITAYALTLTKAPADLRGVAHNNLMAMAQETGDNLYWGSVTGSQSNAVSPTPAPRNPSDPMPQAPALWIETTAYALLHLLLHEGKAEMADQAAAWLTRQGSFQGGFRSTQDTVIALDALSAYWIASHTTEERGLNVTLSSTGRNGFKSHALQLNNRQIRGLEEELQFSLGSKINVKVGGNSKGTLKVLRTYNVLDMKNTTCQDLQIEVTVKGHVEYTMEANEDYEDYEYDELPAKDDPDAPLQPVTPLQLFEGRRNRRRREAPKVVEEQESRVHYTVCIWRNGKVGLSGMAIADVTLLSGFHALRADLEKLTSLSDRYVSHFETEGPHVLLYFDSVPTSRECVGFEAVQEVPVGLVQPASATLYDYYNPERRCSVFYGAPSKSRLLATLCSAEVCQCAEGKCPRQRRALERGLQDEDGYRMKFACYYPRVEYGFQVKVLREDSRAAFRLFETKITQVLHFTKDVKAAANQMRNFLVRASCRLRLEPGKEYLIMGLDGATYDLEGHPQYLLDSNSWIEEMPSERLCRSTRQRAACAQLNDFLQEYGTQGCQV

Row | Substance | C4c EC50 [nM]
51 | Const. No. 71: HSA-…-Gorilla CFI (enzyme) | 679
52 | Const. No. 73: HSA-…-Chimp CFI (enzyme) | 1610
53 | Const. No. 74: HSA-…-Bovine CFI (enzyme) | 47.1
